Measured values from publication PMC7496117, “A zinc finger protein BBX19 interacts with ABF3 to affect drought tolerance negatively in chrysanthemum”.

Target: T1, GST-CmABF3 (Chrysanthemum morifolium, UniProt A0A7T8G3B9 1-415)
T1 sequence: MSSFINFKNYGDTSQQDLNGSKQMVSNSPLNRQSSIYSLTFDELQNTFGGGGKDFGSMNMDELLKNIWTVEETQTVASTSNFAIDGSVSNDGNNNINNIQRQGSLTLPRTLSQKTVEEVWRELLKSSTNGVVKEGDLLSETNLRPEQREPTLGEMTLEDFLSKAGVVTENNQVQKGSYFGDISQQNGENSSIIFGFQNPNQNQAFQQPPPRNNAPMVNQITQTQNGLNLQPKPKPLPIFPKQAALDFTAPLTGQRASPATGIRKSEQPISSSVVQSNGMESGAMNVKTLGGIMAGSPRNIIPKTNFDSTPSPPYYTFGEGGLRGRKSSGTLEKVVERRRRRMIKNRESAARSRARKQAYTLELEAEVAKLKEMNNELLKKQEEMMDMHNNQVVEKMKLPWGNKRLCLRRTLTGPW
Assay: EMSA; 3 ug protein; cold-probe competition 100-5000x, outcome only in gel; LightShift Chemiluminescent EMSA kit, 20 ul reaction, 3 ug protein; biotin probe 50 nM or 2 nM (Methods); buffer, salt, pH and temperature not stated
Settings: protein: recombinant; tags: GST (N-terminal, pGEX); chain copies: 2; blunt

B1: proRAB18-probe (CmRAB18 promoter, two ABRE motifs) (dsDNA)
DNA 1: GAAATTAGACACGTACTTTTCAGTGATAACATAAACATACTTACGTGTTC
DNA 2: GAACACGTAAGTATGTTTATGTTATCACTGAAAAGTACGTGTCTAATTTC
B1: binds.
